Assay results from patent publication US20260209349A1 (IMBIORAY HANGZHOU BIOMEDICINE, published 2026).

What was measured:
Human CD33 = Human CD33 (human, UniProt P20138 18-259); experiment: BLI, affinity to target
Human CLL1 = target: T1, Human CLL1 (human, UniProt Q5QGZ9 65-265, limits assumed); experiment: BLI, affinity to target
T1 construct: also called C-type lectin-like molecule 1
T1 sequence (looked up): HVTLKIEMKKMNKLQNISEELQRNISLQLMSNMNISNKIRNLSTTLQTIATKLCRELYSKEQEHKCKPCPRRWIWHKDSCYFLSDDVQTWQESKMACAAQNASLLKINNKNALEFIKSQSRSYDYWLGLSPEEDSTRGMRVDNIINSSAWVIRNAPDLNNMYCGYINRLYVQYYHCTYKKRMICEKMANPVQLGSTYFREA

Sequence of Human CD33 (P20138 18-259 limits assumed): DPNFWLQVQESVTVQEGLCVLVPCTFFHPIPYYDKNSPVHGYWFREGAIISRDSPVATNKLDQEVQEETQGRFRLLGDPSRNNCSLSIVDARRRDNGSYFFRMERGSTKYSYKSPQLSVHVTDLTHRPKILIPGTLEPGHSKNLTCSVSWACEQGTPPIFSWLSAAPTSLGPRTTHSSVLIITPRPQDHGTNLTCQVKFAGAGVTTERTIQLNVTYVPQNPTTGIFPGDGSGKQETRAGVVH

B1: Anti-CD33-CLL1 bispecific antibody (bispecific antibody, human IgG1, kappa)
heavy 1: not shown
light 1: not shown
heavy 2: not shown
light 2: DIQMTQSPSSLSASVGDRVTITCRASESVDNYGISFMNWFQQKPGKAPKLLIYAASNQGSGVPSRFSGSGSGTDFTLTISSLQPDDFATYYCQQSKEVPWTFGQGTKVEIKRTVAAPSVFIFPPSDEQLKSGTASVVCLLNNFYPREAKVQWKVDNALQSGNSQESVTEQDSKDSTYSLSSTLTLSKADYEKHKVYACEVTHQGLSSPVTKSFNRGEC
notes: Copies '1' follow from this arm exchange; also called anti-CD33/CLL1 antibody
Which results are given for B1?
Kd (Human CD33): 5.5 nM; Kd (Human CLL1): 26 nM
